Among the data in patent US20030125257A1, “Assay for identifying beta secretase inhibitors” (priority 2001, published 2003) are fold reduction of IC-50 with cholic acid compared to Tween-20 values, retold here.

The target in this assay is purified full-length human BACE with six C-terminal His residues, expressed in Sf9 insect cells (human) (UniProt P56817). In words: competitive radioligand binding assay, cholic acid against Tween-20 in the binding buffer.
Sequence of purified full-length human BACE with six C-terminal His residues, expressed in Sf9 insect cells (human) (P56817 other isoform, or with tags, fused parts or gaps limits assumed): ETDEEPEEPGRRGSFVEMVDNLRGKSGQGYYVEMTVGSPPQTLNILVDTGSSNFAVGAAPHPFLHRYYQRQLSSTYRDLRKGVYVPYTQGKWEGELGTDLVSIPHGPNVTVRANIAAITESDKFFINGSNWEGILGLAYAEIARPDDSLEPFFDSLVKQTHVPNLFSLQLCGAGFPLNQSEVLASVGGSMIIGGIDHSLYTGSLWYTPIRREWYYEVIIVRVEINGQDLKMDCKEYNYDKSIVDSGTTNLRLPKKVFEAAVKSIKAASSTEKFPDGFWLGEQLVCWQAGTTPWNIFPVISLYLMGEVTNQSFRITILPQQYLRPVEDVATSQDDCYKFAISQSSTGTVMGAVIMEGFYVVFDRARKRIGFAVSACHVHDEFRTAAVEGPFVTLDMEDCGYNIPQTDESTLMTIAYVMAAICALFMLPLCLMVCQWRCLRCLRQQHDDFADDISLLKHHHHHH

For “peptide H-4848 (Bachem), described in Nature, 1999, 402, 537”, the fold reduction of IC-50 with cholic acid compared to Tween-20 fell in the range of 3 to 4 times.
